Experimental data from patent US20050089938A1, “Use of peptide fragments of the calcium channel a-1 subunit, optionally comprising mutations, for screening molecules of therapeutic interest” (priority 2001, published 2005).

Key:
Cav2.1 channel = biological target: T1, Cav2.1 channel (Oryctolagus cuniculus, UniProt P27884); test: Inactivation kinetics of the Cav2.1 channel expressed in Xenopus oocytes, two-electrode voltage-clamp Ba2+ currents; type: cell-based, rabbit
T1 construct: expressed in transfected cells; host or cells: Xenopus laevis oocytes (cRNA injection)
T1 sequence (P27884 whole entry): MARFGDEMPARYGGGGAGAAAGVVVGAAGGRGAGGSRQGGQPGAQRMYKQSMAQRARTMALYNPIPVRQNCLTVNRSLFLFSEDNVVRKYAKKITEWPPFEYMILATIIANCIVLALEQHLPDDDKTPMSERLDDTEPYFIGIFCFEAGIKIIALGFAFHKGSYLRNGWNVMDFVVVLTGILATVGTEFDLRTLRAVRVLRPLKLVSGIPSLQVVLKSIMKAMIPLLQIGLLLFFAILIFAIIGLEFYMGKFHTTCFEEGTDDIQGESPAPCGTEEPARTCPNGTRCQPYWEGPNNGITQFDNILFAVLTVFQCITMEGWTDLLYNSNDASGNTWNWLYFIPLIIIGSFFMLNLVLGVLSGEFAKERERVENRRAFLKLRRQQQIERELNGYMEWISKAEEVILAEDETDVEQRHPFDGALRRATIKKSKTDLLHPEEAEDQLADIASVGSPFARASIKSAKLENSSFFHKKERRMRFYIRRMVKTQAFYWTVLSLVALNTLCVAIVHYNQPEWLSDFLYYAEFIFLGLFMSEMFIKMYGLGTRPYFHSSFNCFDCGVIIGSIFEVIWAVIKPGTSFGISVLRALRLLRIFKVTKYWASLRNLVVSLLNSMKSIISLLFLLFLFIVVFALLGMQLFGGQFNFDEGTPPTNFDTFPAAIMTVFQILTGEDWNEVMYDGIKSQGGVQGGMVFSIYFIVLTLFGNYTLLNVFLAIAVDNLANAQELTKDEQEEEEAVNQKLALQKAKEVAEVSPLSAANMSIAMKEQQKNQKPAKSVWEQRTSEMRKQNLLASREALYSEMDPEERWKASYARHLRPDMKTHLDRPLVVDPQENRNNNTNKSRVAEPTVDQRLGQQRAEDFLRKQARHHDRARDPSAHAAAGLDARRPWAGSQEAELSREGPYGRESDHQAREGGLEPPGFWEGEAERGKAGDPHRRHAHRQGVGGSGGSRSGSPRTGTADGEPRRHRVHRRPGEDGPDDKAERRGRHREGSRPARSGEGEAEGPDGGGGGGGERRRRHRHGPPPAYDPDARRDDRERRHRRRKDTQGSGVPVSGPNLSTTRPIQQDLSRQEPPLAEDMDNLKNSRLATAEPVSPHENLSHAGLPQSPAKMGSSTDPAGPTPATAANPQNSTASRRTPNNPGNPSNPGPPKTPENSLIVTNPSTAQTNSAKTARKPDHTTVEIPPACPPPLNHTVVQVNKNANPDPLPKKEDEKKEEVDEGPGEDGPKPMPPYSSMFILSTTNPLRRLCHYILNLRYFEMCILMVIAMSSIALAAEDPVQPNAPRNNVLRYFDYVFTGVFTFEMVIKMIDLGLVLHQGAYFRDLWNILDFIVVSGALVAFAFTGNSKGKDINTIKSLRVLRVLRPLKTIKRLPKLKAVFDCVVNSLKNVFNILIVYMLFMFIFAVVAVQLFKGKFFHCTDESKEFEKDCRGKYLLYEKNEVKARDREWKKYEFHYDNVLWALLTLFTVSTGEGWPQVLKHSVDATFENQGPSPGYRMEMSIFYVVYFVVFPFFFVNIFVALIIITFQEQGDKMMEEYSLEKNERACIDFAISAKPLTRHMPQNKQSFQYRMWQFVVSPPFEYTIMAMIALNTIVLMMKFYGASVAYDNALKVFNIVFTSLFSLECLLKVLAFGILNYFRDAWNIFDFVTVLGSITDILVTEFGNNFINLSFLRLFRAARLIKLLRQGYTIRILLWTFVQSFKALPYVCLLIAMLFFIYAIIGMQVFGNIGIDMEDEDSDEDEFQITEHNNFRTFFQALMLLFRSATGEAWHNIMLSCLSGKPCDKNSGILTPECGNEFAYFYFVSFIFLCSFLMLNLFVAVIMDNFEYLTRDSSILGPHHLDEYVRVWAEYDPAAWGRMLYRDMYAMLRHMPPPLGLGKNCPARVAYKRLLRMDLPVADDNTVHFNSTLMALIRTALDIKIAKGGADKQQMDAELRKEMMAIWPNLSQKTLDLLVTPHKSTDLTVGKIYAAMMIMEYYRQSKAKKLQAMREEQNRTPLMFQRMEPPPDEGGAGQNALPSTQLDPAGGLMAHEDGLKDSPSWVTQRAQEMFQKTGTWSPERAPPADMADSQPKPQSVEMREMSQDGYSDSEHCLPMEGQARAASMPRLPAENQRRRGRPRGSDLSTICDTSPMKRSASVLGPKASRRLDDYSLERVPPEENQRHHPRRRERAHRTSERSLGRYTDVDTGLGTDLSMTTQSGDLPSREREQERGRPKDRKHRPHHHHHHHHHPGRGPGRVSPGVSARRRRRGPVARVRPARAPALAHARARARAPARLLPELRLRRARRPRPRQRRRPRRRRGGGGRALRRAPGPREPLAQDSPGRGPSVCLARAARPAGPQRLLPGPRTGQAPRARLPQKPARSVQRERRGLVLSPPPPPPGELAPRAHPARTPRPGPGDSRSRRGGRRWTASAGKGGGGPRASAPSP
Experimental: Xenopus oocytes are removed at Stages V and VI from ovaries of Xenopus laevis frogs from South Africa and maintained in standard saline solution (Barth's medium). The cells are treated with collagenase type IA (2 mg/ml) for two hours and the follicular membranes are eliminated manually. The oocytes are maintained in DNOM medium (defined nutrient oocyte medium) for 2 days before injection of cRNA coding for the Cav2.1 channel. The injection of this cRNA coding for the wild-type or mutated channel is carried out at a concentration of 0.3 μg/μl. In the case of coinjection of other cRNAs (for example: CD8-III-IV, III-IV, etc.), these cRNAs are injected at a concentration of 0.1 μg/μl. The injections of III-IV peptide are carried out at a final intracellular concentration of 10 μM. […] Following the cRNA injections, the cells are kept at 16° C. in DNOM medium for a minimum of 4-5 days before continuing with the electrophysiological recordings.
We applied the two-electrode voltage-clamp technique for the recordings of Ba^2+ currents (the Ba^2+ is more permeable than the Ca^2+ through the high-threshold calcium channels and facilitates our analyses). The recordings are carried out with a GeneClamp amplifier from Axon Instruments (Foster City, Calif.). […] The data are analyzed with the pCLAMP software suite version 6.03 (Axon Instruments). […]

[1] = system: high threshold calcium channels; test: High-threshold calcium current after expression of the I-II loop in rat cerebellum granular cells; type: cell-based; details: rat cerebellum granular cells transfected with I-II loop coupled to CD8 transmembrane segment and GFP
Description: (§1) The expression of the I-II loop of the Cav2.1 channel is induced following a cell transfection method (thanks to a transfection agent: lipofectamine, fugene etc.). In order to have the ability to bind the endogenous β sub-units to these cells, we have noted that the ability of this I-II sequence to reduce the expression at the plasma membrane of the endogenous high-threshold calcium channels is facilitated by its coupling to a transmembrane segment. The Inventors have used for their experiments the transmembrane segment of the α chain of the human CD8 receptor, coupled to the amino-terminal part of the I-II loop. In order to facilitate the detection of the transfected cells, the carboxy-terminal part of the I-II loop was coupled to GFP protein (Green Fluorescent Protein) which has the property of green fluorescence (easily detectable in fluorescence microscopy). FIG. 1A illustrates the construction used for these experiments. FIG. 1B illustrates the amino-acid sequence of the transmembrane sequence of the α chain of the CD8 receptor.

[2] = system: high threshold calcium channels; test: High-threshold calcium current after expression of the I-II loop in bovine chromaffin cells; type: cell-based; details: bovine chromaffin cells transfected with I-II loop coupled to CD8 transmembrane segment and GFP
Description: as §1

III-IV loop of Cav2.1 = biological target: T2, III-IV loop of Cav2.1 (Oryctolagus cuniculus, UniProt P27884); test: Binding of 35S-methionine labelled in vitro translated I-II loop to GST-III-IV fusion protein; parameters: species or system rabbit; details: 35S-methionine labelled I-II loop, absence of β sub-unit
T2 construct: This III-IV loop has been expressed and purified as a GST (Glutathione-S-Tranferase) fusion protein; made in house
T2 sequence (P27884 1521-1575): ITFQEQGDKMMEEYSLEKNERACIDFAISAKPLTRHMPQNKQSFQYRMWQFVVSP
Description: FIG. 2: Binding of the I-II loop of Cav2.1 to different intracellular loops. […] This III-IV loop has been expressed and purified as a GST (Glutathione-S-Tranferase) fusion protein. The I-II protein of the channel has been translated in vitro and labelled by a radioactive amino acid (^35S-methionine) in order to monitor its binding to the GST-III-IV fusion protein.
These two amino acids are therefore indispensable to the binding of the I-II loop to the III-IV loop in the absence of the β sub-unit of the calcium channel.

In the case of “peptide representing the 40 carboxy-terminal amino acids of the III-IV loop: peptide representing the 40 carboxy-terminal amino acids of the III-IV loop of Cav2.1 (LEKNERACIDFAISAKPLTRHMPQNKQSFQYRMWQFVVSP)”, the “effect on inactivation kinetics of the Cav2.1 channel” value (Cav2.1 channel; peptide free in the cytoplasm, injected, final intracellular concentration 10 μM) is reported as “acceleration is similar”.

In the case of “III-IV loop: III-IV loop of Cav2.1 expressed coupled in amino-terminal position with the α chain of the human CD8 receptor”, the “effect on inactivation kinetics of the Cav2.1 channel” value (Cav2.1 channel; III-IV loop associated with the plasma membrane via amino-terminal coupling to α chain of human CD8 receptor, cRNA coinjection) is reported as “accelerates the inactivation kinetics”.

B1: I-II loop of the Cav2.1 sub-unit: I-II loop of the Cav2.1 calcium channel sub-unit; in cells coupled to CD8 transmembrane segment and GFP (protein, listed as Oryctolagus cuniculus)
chain: SGEFAKERERVENRRAFLKLRRQQQIERELNGYMEWISKAEEVILAEDETDVEQRHPFDGALRRATIKKSKTDLLHPEEAEDQLADIASVGSPFARASIKSAKLENSSFFHKKERRMRFYIRRMVKTQ
For B1, the “reduction of the high-threshold calcium current” value [1] was “more than 50%”, the “reduction of the high-threshold calcium current” value [2] was “more than 50%” and the “binding to the GST-III-IV fusion protein” value (III-IV loop of Cav2.1) was “binding of I-II is evident”.
